Measured values as given in patent US20200317776A1 (published 2020).
Where two headings read alike, the source gives them in different places.

T1: human TREM2 Fc fusion (entire TREM2 ECD; only one Fc arm fused to TREM2) (human, UniProt Q9NZC2 19-174)
T1 construct: also called huTREM2-Fc; recombinant hTREM2
T1 sequence: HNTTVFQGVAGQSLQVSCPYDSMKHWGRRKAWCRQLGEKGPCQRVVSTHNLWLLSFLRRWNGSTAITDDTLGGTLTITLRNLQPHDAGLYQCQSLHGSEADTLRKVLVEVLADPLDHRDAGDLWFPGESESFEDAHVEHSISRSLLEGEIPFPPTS

T2: human TREM2 expressed on cells (human, UniProt Q9NZC2 19-230)
T2 construct: BW5147.G.1.4 cells stably expressing human TREM2 together with Dap12, or endogenous TREM2 of primary human myeloid cells; also called huT2 BW; hTREM2 expressing cell line
T2 sequence: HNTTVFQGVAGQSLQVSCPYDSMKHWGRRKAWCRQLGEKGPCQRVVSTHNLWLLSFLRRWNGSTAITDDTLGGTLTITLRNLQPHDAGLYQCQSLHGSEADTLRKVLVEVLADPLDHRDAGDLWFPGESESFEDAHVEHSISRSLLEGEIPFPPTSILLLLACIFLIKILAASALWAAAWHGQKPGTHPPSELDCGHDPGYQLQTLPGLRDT

T3: cynomolgus monkey TREM2 Fc fusion (entire TREM2 ECD; only one Fc arm fused to TREM2) (cynomolgus monkey, UniProt Q9NZC2 19-174 (human entry))
T3 construct: also called cyno TREM2-Fc
T3 chain: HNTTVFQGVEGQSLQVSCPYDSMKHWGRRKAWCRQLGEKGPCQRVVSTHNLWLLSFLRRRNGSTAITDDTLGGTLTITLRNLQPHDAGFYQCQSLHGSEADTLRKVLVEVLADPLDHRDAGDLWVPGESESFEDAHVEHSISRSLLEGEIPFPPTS


Legend:
[1] = biological target: T1, human TREM2 Fc fusion (entire TREM2 …); assay: BLI, IgG, avid
In short: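 Avid format: AHQ-loaded IgGs exposed to 100 nM human or cyno TREM2-Fc antigen, 3 min association, 3 min dissociation in buffer. Monovalent format: human TREM2-Fc loaded on AHQ sensors, exposed to 100 nM Fab. Kinetics fit to 1:1 model, run at 25° C.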

[2] = biological target: T2, human TREM2 expressed on cells; assay: FACS, human DCs
In short: (§1)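 Cells were BW5147.G.1.4 stably expressing human TREM2 with Dap12, or human monocyte-derived dendritic cells differentiated 6 days with GM-CSF and IL-4. Antibodies bound 1 h on ice in PBS+2% FBS, then PE anti-human secondary 30 min on ice; flow cytometry read-out as mean fluorescence intensity.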

[3] = biological target: T1, human TREM2 Fc fusion (entire TREM2 …); assay: BLI, Fab, monovalent
In short: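 TREM2 Fc fusion antigen was loaded onto AHQ biosensors, with a 60 s baseline in assay buffer. The sensors were then exposed to 100 nM antibody Fab for monovalent binding. Data were fitted to a 1:1 model, and the assay ran at 25 °C.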

[4] = biological target: T1, human TREM2 Fc fusion (entire TREM2 …); assay: BLI, Fab, monovalent; remark: listed apart in the source
[5] = biological target: T3, cynomolgus monkey TREM2 Fc fusion …; assay: BLI, Fab, monovalent
[6] = biological target: T2, human TREM2 expressed on cells; assay: FACS, hTREM2 BW cells
In short: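 BW5147.G.1.4 cells stably co-expressing human TREM2 and Dap12, 1×10⁵ cells/well, incubated with anti-TREM2 antibody 1 h on ice in PBS/2% FBS. Anti-human PE secondary 30 min on ice; flow cytometry, binding as mean fluorescence intensity.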

[7] = biological target: T2, human TREM2 expressed on cells; assay: FACS, hTREM2 BW cells; remark: listed apart in the source
In short: as §1

[8] = biological target: T4, human TREM2/DAP12 fusion protein (human, UniProt O43914 41-113, limits assumed); assay: cell-based or functional assay
[9] = biological target: T2, human TREM2 expressed on cells; assay: cell-based or functional assay
[10] = biological target: T4, human TREM2/DAP12 fusion protein; assay: cell-based or functional assay; remark: listed apart in the source
[11] = biological target: T4, human TREM2/DAP12 fusion protein; assay: cell-based or functional assay; remark: listed apart in the source
[12] = biological target: T2, human TREM2 expressed on cells; assay: FACS, hTREM2 BW cells; remark: listed apart in the source
[13] = biological target: T2, human TREM2 expressed on cells; assay: cell-based or functional assay; remark: listed apart in the source
[14] = biological target: T2, human TREM2 expressed on cells; assay: FACS, hTREM2 BW cells; remark: listed apart in the source
[15] = biological target: T4, human TREM2/DAP12 fusion protein; assay: cell-based or functional assay; remark: listed apart in the source

T4 sequence (O43914 other isoform, or with tags, fused parts or gaps limits assumed): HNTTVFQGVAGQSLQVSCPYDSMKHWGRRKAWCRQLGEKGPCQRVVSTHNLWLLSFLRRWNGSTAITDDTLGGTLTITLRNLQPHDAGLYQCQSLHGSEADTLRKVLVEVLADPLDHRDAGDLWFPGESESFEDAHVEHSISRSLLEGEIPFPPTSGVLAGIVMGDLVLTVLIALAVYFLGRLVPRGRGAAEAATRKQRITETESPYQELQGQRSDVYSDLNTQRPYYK

Kd [1] | MFI [2] | Kd [4] | Kd [5] | Kd [7] | Luciferase activation plate bound 33 nM IgG, FOC [10] | Luciferase activation soluble 10 nM IgG, FOC [10] | luciferase activation, soluble IgG, EC50 [11] | Kd [12] | Binder | Survival huDCs plate bound IgG, AUC [9] | also measured
1.19 nM | 26 MFI | 112 nM | 7700 nM | 3.7 nM | 6.83 FOC | 1.26 FOC | 63.1 nM | – | AL2p-h50 (antibody, human IgG1, V domains shown, humanized, human IgG1; Fab and IgG formats under one id) VH: QVQLVQSGAEVKKPGSSVKVSCKASGYAFSSSWMNWVRQAPGQGLEWMGRIYPGDGDTNYAQKFQGRVTITADESTSTAYMELSSLRSEDTAVYYCARLLRNQPGESYAMDYWGQGTLVTVSS VL: DVVMTQTPLSLSVTPGQPASISCRSSQSLVHSNGYTYLHWYLQKPGQSPQLLIYKVSNRFSGVPDRFSGSGSGTDFTLKISRVEAEDVGVYYCSQSTRVPYTFGQGTKLEIK | 337000 AUC | Kd [3]: 180 nM; cell binding (FOB) [6]: 78 FOB; Soluble luciferase activation at 10 µg/ml Fold over control [8]: 6.36 fold over control
1.17 nM | 162 MFI | 102 nM | 184 nM | 3.9 nM | 6.77 FOC | 1.47 FOC | 20.1 nM | – | AL2p-h77 (antibody, human IgG1, V domains shown, humanized, human IgG1; Fab and IgG formats under one id; also called A2p-h77) VH: QVQLVQSGAEVKKPGASVKVSCKASGYAFSSSWMNWVRQAPGQRLEWIGRIYPGDGDTNYAQKFQGRVTITADTSASTAYMELSSLRSEDTAVYYCARLLRNQPGESYAMDYWGQGTLVTVSS VL: DVVMTQSPDSLAVSLGERATINCRSSQSLVHSNGYTYLHWYQQKPGQSPKLLIYKVSNRFSGVPDRFSGSGSGTDFTLTISSLQAEDVAVYYCSQSTRVPYTFGGGTKVEIK | 381000 AUC | Kd [3]: 93.9 nM; cell binding (FOB) [6]: 83 FOB; Soluble luciferase activation at 10 µg/ml Fold over control [8]: 7.14 fold over control
– | – | – | – | – | – | – | – | 1.12 nM | AL2p-60 (antibody, IgG1, V domains shown) VH: QVQLVQSGAEVKKPGSSVKVSCKASGYAFSSQWMNWVRQAPGQGLEWMGRIYPGEGDTNYARKFQGRVTITADESTSTAYMELSSLRSEDTAVYYCARLLRNQPGESYAMDYWGQGTLVTVSS VL: GVVMTQTPLSLSVTPGQPASISCRSSQSLVHSNQYTYLHWYLQKPGQSPQLLIYKVSNRRSGVPDRFSGSGSGTDFTLKISRVEAEDVGVYYCSQSTRVPYTFGQGTKLEIK | – | EC50 viability, dendritic cells D558 [13]: 0.152 nM; EC50 viability, dendritic cells D559 [13]: 0.244 nM; EC50 viability, dendritic cells D560 [13]: 0.178 nM; EC50 viability, macrophages D559 [13]: 0.194 nM; EC50 viability, macrophages D560 [13]: 0.154 nM
– | – | 21.1 nM | 19.4 nM | – | – | – | 25.1 nM | 2.63 nM | AL2p-62 (antibody, V domains shown, Fab and IgG formats under one id) VH: QVQLVQSGAEVKKPGASVKVSCKASGYAFSSQWMNWVRQAPGQRLEWIGRIYPGEGDTNYAGKFQGRVTITADTSASTAYMELSSLRSEDTAVYYCARLLRNQPGESYAMDYWGQGTLVTVSS VL: DVVMTQSPDSLAVSLGERATINCRSSQSLVHSNQYTYLHWYQQKPGQSPKLLIYKVSNRFSGVPDRFSGSGSGTDFTLTISSLQAEDVAVYYCSQSTRVPYTFGGGTKVEIK | – | –
0.779 nM | 194 MFI | 23.8 nM | 16.1 nM | 2.9 nM | 9.42 FOC | 2.16 FOC | – | – | AL2p-37 (antibody, IgG1, V domains shown, Fab and IgG formats under one id; also called AL2p-37 huIgG1) VH: QVQLVQSGAEVKKPGASVKVSCKASGYAFSSQWMNWVRQAPGQRLEWIGRIYPGGGDTNYAGKFQGRVTITADTSASTAYMELSSLRSEDTAVYYCARLLRNQPGESYAMDYWGQGTLVTVSS VL: DVVMTQSPDSLAVSLGERATINCRSSQSLVHSNGYTYLHWYQQKPGQSPKLLIYKVSNRFSGVPDRFSGSGSGTDFTLTISSLQAEDVAVYYCSQSTRVPYTFGGGTKVEIK | 680000 AUC | Bmax (MFI) [14]: 216000 MFI; Kd [14]: 1.17 nM; Plate bound IgG, fold over unstimulated control (25 nM IgG) [15]: 1.56 fold; Soluble IgG, EC50 [15]: 9.41 nM; Soluble IgG, fold over control IgG (17 nM IgG) [15]: 7.63 fold; EC50 viability, dendritic cells D558 [13]: 4.19 nM; EC50 viability, dendritic cells D559 [13]: 6.16 nM; EC50 viability, dendritic cells D560 [13]: 4.47 nM; EC50 viability, macrophages D558 [13]: 1.24 nM; EC50 viability, macrophages D559 [13]: 18.3 nM; EC50 viability, macrophages D560 [13]: 31.8 nM
– | – | – | – | – | 7.42 FOC | 1.45 FOC | 66.2 nM | – | AL2p-4 (antibody, V domains shown) VH: QVQLVQSGAEVKKPGSSVKVSCKASGYAFSSSWMNWVRQAPGQGLEWMGRIYPGQGDTNYAQKFQGRVTITADESTSTAYMELSSLRSEDTAVYYCARLLRNQPGESYAMDYWGQGTLVTVSS VL: DVVMTQTPLSLSVTPGQPASISCRSSQSLVHSNGYTYLHWYLQKPGQSPQLLIYKVSNRFSGVPDRFSGSGSGTDFTLKISRVEAEDVGVYYCSQSTRVPYTFGQGTKLEIK | – | –
0.837 nM | – | 63.3 nM | 1400 nM | 2.2 nM | 7.36 FOC | 1.7 FOC | 23 nM | – | AL2p-2 (antibody, V domains shown, AL2p-h50 variant; Fab and IgG formats under one id) VH: QVQLVQSGAEVKKPGSSVKVSCKASGYAFSSSWMNWVRQAPGQGLEWMGRIYPGGGDTNYAQKFQGRVTITADESTSTAYMELSSLRSEDTAVYYCARLLRNQPGESYAMDYWGQGTLVTVSS VL: DVVMTQTPLSLSVTPGQPASISCRSSQSLVHSNGYTYLHWYLQKPGQSPQLLIYKVSNRFSGVPDRFSGSGSGTDFTLKISRVEAEDVGVYYCSQSTRVPYTFGQGTKLEIK | 461000 AUC | –
– | – | 3.85 nM | 3.95 nM | – | – | – | 11.2 nM | 1.24 nM | AL2p-59 (antibody, V domains shown, Fab and IgG formats under one id) VH: QVQLVQSGAEVKKPGSSVKVSCKASGYAFSSHWMNWVRQAPGQGLEWMGRIYPGEGQTNYAQKRQGRVTITADESTSTAYMELSSLRSEDTAVYYCARLLRNQPGESYAMDYWGQGTLVTVSS VL: GVVMTQTPLSLSVTPGQPASISCRTSQSLVHSNQYTYLHWYLQKPGQSPQLLIYKVSNRVSGVPDRFSGSGSGTDFTLKISRVEAEDVGVYYCSQSTRVPYTFGQGTKLEIK | – | –
– | – | 99.2 nM | 4630 nM | 2 nM | 9.99 FOC | 1.27 FOC | 38.1 nM | 2 nM | AL2p-5 (antibody, V domains shown, AL2p-h50 variant; Fab and IgG formats under one id; also called AL2-5) VH: QVQLVQSGAEVKKPGSSVKVSCKASGYAFSSSWMNWVRQAPGQGLEWMGRIYPGDGDTNYAQKFQGRVTITADESTSTAYMELSSLRSEDTAVYYCARLLRNQPGESYAMDYWGQGTLVTVSS VL: DVVMTQTPLSLSVTPGQPASISCRSSQSLVHSNRYTYLHWYLQKPGQSPQLLIYKVSNRFSGVPDRFSGSGSGTDFTLKISRVEAEDVGVYYCSQSTRVPYTFGQGTKLEIK | 710000 AUC | –
